Data from the supplement of paper PMC11316812.
± gives the standard deviation of the averaged measurements.

Key:
[1] = test system: MCF7; experiment: percentage of EdU-negative (G0-arrested) nuclei per well, 72 h; higher = more G0 arrest; settings: reference: sequence is the full UniProt precursor, the tested protein was the secreted form or ectodomain
[2] = test system: hTERT-HMEC; experiment: as above; settings: reference: sequence is the full UniProt precursor, the tested protein was the secreted form or ectodomain
[3] = protein concentration 0.0225 µM
[4] = protein concentration 0.01275 µM
[5] = protein concentration 0.1275 µM
[6] = protein concentration 0.00685714 µM
[7] = protein concentration 0.0685714 µM
[8] = protein concentration 0.01575 µM
[9] = protein concentration 0.1575 µM
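Also: secreted proteins added to cultured cells, EdU pulse at the end, nuclei found by Hoechst imaging, EdU status from nuclear versus surrounding ring intensity ratio, PBS as neutral control.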

Sequence	percentage of EdU-negative [1, 3] [%]	percentage of EdU-negative ([1]; protein concentration 0.225 µM) [%]	percentage of EdU-negative [2, 3] [%]	percentage of EdU-negative ([2]; protein concentration 0.225 µM) [%]	also measured
MAAQGCAASRLLQLLLQLLLLLLLLAAGGARARWRGEGTSAHLRDIFLGRCAEYRALLSPEQRNKNCTAIWEAFKVALDKDPCSVLPSDYDLFINLSRHSIPRDKSLFWENSHLLVNSFADNTRRFMPLSDVLYGRVADFLSWCRQKNDSGLDYQSCPTSEDCENNPVDSFWKRASIQYSKDSSGVIHVMLNGSEPTGAYPIKGFFADYEIPNLQKEKITRIEIWVMHEIGGPNVESCGEGSMKVLEKRLKDMGFQYSCINDYRPVKLLQCVDHSTHPDCALKSAAAATQRKAPSLYTEQRAGLIIPLFLVLASRTQL	25.74 ± 0.03	23.5 ± 0.97	5.33 ± 0.28	5.57 ± 1	–
MAARALCMLGLVLALLSSSSAEEYVGLSANQCAVPAKDRVDCGYPHVTPKECNNRGCCFDSRIPGVPWCFKPLQEAECTF	26.62 ± 0.26	24 ± 0.99	4.3 ± 0.16	4.29 ± 0.22	–
MAARRSQRRRGRRGEPGTALLVPLALGLGLALACLGLLLAVVSLGSRASLSAQEPAQEELVAEEDQDPSELNPQTEESQDPAPFLNRLVRPRRSAPKGRKTRARRAIAAHYEVHPRPGQDGAQAGVDGTVSGWEEARINSSSPLRYNRQIGEFIVTRAGLYYLYCQVHFDEGKAVYLKLDLLVDGVLALRCLEEFSATAASSLGPQLRLCQVSGLLALRPGSSLRIRTLPWAHLKAAPFLTYFGLFQVH	24.6 ± 1.4	24.3 ± 3.4	12.2 ± 2.6	13.4 ± 1.1	–
MAASRWARKAVVLLCASDLLLLLLLLPPPGSCAAEGSPGTPDESTPPPRKKKKDIRDYNDADMARLLEQWEKDDDIEEGDLPEHKRPSAPVDFSKIDPSKPESILKMTKKGKTLMMFVTVSGSPTEKETEEITSLWQGSLFNANYDVQRFIVGSDRAIFMLRDGSYAWEIKDFLVGQDRCADVTLEGQVYPGKGGGSKEKNKTKQDKGKKKKEGDLKSRSSKEENRAGNKREDL	27.3 ± 3.2	27.3 ± 1	5.03 ± 0.66	11 ± 0.91	–
MAATSLMSALAARLLQPAHSCSLRLRPFHLAAVRNEAVVISGRKLAQQIKQEVRQEVEEWVASGNKRPHLSVILVGENPASHSYVLNKTRAAAVVGINSETIMKPASISEEELLNLINKLNNDDNVDGLLVQLPLPEHIDERRICNAVSPDKDVDGFHVINVGRMCLDQYSMLPATPWGVWEIIKRTGIPTLGKNVVVAGRSKNVGMPIAMLLHTDGAHERPGGDATVTISHRYTPKEQLKKHTILADIVISAAGIPNLITADMIKEGAAVIDVGINRVHDPVTAKPKLVGDVDFEGVRQKAGYITPVPGGVGPMTVAMLMKNTIIAAKKVLRLEEREVLKSKELGVATN	–	–	–	–	percentage of EdU-negative [1, 4]: 24 ± 0.89%; percentage of EdU-negative [1, 5]: 29 ± 2%; percentage of EdU-negative [2, 4]: 4.46 ± 0.17%; percentage of EdU-negative [2, 5]: 5.45 ± 0.4%
MAAVRGAPLLSCLLALLALCPGGRPQTVLTDDEIEEFLEGFLSELEPEPREDDVEAPPPPEPTPRVRKAQAGGKPGKRPGTAAEVPPEKTKDKGKKGKKDKGPKVPKESLEGSPRPPKKGKEKPPKATKKPKEKPPKATKKPKEKPPKATKKPKEKPPKATKKPPSGKRPPILAPSETLEWPLPPPPSPGPEELPQEGGAPLSNNWQNPGEETHVEAREHQPEPEEETEQPTLDYNDQIEREDYEDFEYIRRQKQPRPPPSRRRRPERVWPEPPEEKAPAPAPEERIEPPVKPLLPPLPPDYGDGYVIPNYDDMDYYFGPPPPQKPDAERQTDEEKEELKKPKKEDSSPKEETDKWAVEKGKDHKEPRKGEELEEEWTPTEKVKCPPIGMESHRIEDNQIRASSMLRHGLGAQRGRLNMQTGATEDDYYDGAWCAEDDARTQWIEVDTRRTTRFTGVITQGRDSSIHDDFVTTFFVGFSNDSQTWVMYTNGYEEMTFHGNVDKDTPVLSELPEPVVARFIRIYPLTWNGSLCMRLEVLGCSVAPVYSYYAQNEVVATDDLDFRHHSYKDMRQLMKVVNEECPTITRTYSLGKSSRGLKIYAMEISDNPGEHELGEPEFRYTAGIHGNEVLGRELLLLLMQYLCREYRDGNPRVRSLVQDTRIHLVPSLNPDGYEVAAQMGSEFGNWALGLWTEEGFDIFEDFPDLNSVLWGAEERKWVPYRVPNNNLPIPERYLSPDATVSTEVRAIIAWMEKNPFVLGANLNGGERLVSYPYDMARTPTQEQLLAAAMAAARGEDEDEVSEAQETPDHAIFRWLAISFASAHLTLTEPYRGGCQAQDYTGGMGIVNGAKWNPRTGTINDFSYLHTNCLELSFYLGCDKFPHESELPREWENNKEALLTFMEQVHRGIKGVVTDEQGIPIANATISVSGINHGVKTASGGDYWRILNPGEYRVTAHAEGYTPSAKTCNVDYDIGATQCNFILARSNWKRIREIMAMNGNRPIPHIDPSRPMTPQQRRLQQRRLQHRLRLRAQMRLRRLNATTTLGPHTVPPTLPPAPATTLSTTIEPWGLIPPTTAGWEESETETYTEVVTEFGTEVEPEFGTKVEPEFETQLEPEFETQLEPEFEEEEEEEKEEEIATGQAFPFTTVETYTVNFGDF [Q8IUX7]	–	–	–	–	percentage of EdU-negative [1, 6]: 24.8 ± 1.1%; percentage of EdU-negative [1, 7]: 28.5 ± 0.34%; percentage of EdU-negative [2, 6]: 4.79 ± 0.43%; percentage of EdU-negative [2, 7]: 11.5 ± 0.62%
MAAVVAATRWWQLLLVLSAAGMGASGAPQPPNILLLLMDDMGWGDLGVYGEPSRETPNLDRMAAEGLLFPNFYSANPLCSPSRAALLTGRLPIRNGFYTTNAHARNAYTPQEIVGGIPDSEQLLPELLKKAGYVSKIVGKWHLGHRPQFHPLKHGFDEWFGSPNCHFGPYDNKARPNIPVYRDWEMVGRYYEEFPINLKTGEANLTQIYLQEALDFIKRQARHHPFFLYWAVDATHAPVYASKPFLGTSQRGRYGDAVREIDDSIGKILELLQDLHVADNTFVFFTSDNGAALISAPEQGGSNGPFLCGKQTTFEGGMREPALAWWPGHVTAGQVSHQLGSIMDLFTTSLALAGLTPPSDRAIDGLNLLPTLLQGRLMDRPIFYYRGDTLMAATLGQHKAHFWTWTNSWENFRQGIDFCPGQNVSGVTTHNLEDHTKLPLIFHLGRDPGERFPLSFASAEYQEALSRITSVVQQHQEALVPAQPQLNVCNWAVMNWAPPGCEKLGKCLTPPESIPKKCLWSH	–	–	–	–	percentage of EdU-negative [1, 8]: 27.9 ± 1.1%; percentage of EdU-negative [1, 9]: 26.9 ± 0.35%; percentage of EdU-negative [2, 8]: 5.59 ± 0.71%; percentage of EdU-negative [2, 9]: 24.2 ± 1.3%
MAAWSPAAAAPLLRGIRGLPLHHRMFATQTEGELRVTQILKEKFPRATAIKVTDISGGCGAMYEIKIESEEFKEKRTVQQHQMVNQALKEEIKEMHGLRIFTSVPKR [Q53S33]	26.66 ± 0.12	26.7 ± 1.7	4.56 ± 0.98	5.94 ± 0.72	–
